The values that follow are results of earlier work, collected in article PMC3518592.

This data set addresses ubiquitin (UniProt P0CG48).

Sequence of Vps9 CUE (P54787 405-451): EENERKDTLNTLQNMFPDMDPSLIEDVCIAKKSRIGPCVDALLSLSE

Usually Kd stands for the equilibrium constant for the complex coming apart. On to Vps9 CUE (from UniProt P54787), for which the Kd is 20 µM.
